PMC9482650, “Quantitative fragmentomics allow affinity mapping of interactomes” (Nature Communications, 2022)

Tests used:
Assay in all cases: holdup assay
Set-up in all cases: key: below the threshold = too weak to quantify, mostly under pKd 3.1 to 4
Details in all cases: plain residues with an end cap or a label only (N-terminal biotin on a linker: ado-ado)
[1] = molecular target: HTRA1, Q92743
[2] = molecular target: T1, LRRC7, Q96NW7
T1 sequence (Q96NW7 1440-1537, limits assumed, looked up): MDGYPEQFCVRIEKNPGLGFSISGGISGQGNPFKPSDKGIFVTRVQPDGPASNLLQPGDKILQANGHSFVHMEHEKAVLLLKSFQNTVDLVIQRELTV

[3] = molecular target: T2, TX1BP3, O14907
T2 sequence (O14907 10-122, limits assumed, looked up): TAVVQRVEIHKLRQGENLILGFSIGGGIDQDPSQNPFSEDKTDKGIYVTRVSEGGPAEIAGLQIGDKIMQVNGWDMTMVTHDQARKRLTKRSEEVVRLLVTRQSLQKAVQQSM

[4] = molecular target: T3, MPDZ_5, O75970
T3 sequence (O75970 695-796, limits assumed, looked up): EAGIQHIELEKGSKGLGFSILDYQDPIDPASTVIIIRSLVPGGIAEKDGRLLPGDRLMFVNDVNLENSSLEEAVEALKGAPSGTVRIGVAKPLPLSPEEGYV

[5] = molecular target: DLG5_1, Q8TDM6
[6] = molecular target: DLG1_2, Q12959
[7] = molecular target: MAST1, Q9Y2H9
[8] = molecular target: LIMK2, P53671
[9] = molecular target: DLG2_3, Q15700
[10] = molecular target: MAGI2_4, Q86UL8
[11] = molecular target: T4, PCLO, Q9Y6V0
T4 sequence (Q9Y6V0 4491-4600, limits assumed, looked up): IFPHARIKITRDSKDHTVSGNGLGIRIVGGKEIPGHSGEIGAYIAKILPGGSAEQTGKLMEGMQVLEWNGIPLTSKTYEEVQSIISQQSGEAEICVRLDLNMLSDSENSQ

[12] = molecular target: T5, MPP7, Q5T2T1
T5 sequence (Q5T2T1 134-230, limits assumed, looked up): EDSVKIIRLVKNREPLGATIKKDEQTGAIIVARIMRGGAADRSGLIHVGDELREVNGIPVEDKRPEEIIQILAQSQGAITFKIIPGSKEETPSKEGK

[13] = molecular target: T6, GRIP1_3, Q9Y3R0
T6 sequence (Q9Y3R0 247-346, limits assumed, looked up): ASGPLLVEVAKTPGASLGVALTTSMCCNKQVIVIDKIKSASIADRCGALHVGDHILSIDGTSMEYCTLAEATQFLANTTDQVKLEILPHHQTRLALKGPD

[14] = molecular target: PDZRN4_1, Q6ZMN7
[15] = molecular target: GRID2IP_2, A4D2P6
[16] = molecular target: Inadl_5, Q8NI35
[17] = molecular target: T7, NHERF3_3, Q5T2W1
T7 sequence (Q5T2W1 238-333, limits assumed, looked up): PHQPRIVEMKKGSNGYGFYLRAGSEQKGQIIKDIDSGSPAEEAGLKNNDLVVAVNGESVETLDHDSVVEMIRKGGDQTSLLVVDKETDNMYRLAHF

[18] = molecular target: T8, SNTA1, Q13424
T8 sequence (Q13424 82-180, limits assumed, looked up): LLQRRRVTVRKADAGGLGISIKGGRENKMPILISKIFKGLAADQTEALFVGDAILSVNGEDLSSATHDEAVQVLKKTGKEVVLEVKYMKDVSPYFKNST

[19] = molecular target: T9, NHERF3_4, Q5T2W1
T9 sequence (Q5T2W1 373-468, limits assumed, looked up): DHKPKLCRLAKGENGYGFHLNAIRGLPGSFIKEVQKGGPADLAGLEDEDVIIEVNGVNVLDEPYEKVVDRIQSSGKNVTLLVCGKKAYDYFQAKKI

[20] = molecular target: T10, SYNJ2BP, P57105
T10 sequence (P57105 8-110, limits assumed, looked up): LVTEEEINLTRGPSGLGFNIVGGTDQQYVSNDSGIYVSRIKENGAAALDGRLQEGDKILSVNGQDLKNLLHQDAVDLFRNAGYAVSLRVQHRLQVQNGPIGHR

[21] = molecular target: T11, GRIP1_7, Q9Y3R0
T11 sequence (Q9Y3R0 999-1096, limits assumed, looked up): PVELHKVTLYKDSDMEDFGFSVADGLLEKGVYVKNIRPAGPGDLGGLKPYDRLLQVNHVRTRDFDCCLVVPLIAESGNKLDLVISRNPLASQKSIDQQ

[22] = molecular target: GRIP2_7, Q9C0E4
[23] = molecular target: DLG2_2, Q15700
[24] = molecular target: T12, RHPN1, Q8TCX5
T12 sequence (Q8TCX5 508-602, limits assumed, looked up): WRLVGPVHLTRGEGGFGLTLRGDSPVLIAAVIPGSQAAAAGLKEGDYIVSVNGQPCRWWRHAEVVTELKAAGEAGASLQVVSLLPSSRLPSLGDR

[25] = molecular target: MAGI2_3, Q86UL8
MAGI2_3, Q86UL8, sequence (Q86UL8 600-682): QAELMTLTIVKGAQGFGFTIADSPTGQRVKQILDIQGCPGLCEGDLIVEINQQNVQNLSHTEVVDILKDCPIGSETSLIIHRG

LIMK2, P53671, sequence (P53671 143-248): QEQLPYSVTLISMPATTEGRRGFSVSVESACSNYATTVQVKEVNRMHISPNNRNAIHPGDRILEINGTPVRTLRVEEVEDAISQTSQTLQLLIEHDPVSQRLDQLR
MAST1, Q9Y2H9, sequence (Q9Y2H9 962-1065): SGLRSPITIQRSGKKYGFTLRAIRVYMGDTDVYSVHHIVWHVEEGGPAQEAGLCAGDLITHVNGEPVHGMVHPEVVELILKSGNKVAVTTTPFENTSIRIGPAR
DLG1_2, Q12959, sequence (Q12959 314-412): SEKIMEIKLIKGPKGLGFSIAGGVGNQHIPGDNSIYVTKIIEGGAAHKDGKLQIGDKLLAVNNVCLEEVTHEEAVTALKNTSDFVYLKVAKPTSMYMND
PDZRN4_1, Q6ZMN7, sequence (Q6ZMN7 213-318): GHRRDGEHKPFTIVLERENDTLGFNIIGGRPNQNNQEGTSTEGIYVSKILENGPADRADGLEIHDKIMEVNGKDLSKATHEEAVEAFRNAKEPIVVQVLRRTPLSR
GRIP2_7, Q9C0E4, sequence (Q9C0E4 934-1023): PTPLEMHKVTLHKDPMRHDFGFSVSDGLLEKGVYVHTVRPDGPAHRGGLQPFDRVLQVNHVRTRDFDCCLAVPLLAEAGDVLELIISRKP
GRID2IP_2, A4D2P6, sequence (A4D2P6 272-370): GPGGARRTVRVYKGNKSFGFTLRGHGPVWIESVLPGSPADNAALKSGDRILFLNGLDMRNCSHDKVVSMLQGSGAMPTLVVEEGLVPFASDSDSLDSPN
Inadl_5, Q8NI35, sequence (Q8NI35 673-780): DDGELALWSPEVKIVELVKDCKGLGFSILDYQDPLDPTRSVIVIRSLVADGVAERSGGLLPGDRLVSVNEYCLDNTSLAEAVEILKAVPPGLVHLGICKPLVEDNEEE
MAGI2_4, Q86UL8, sequence (Q86UL8 772-865): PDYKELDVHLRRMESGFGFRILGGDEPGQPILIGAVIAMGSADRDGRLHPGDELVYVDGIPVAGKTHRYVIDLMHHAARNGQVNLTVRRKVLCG
DLG5_1, Q8TDM6, sequence (Q8TDM6 617-713): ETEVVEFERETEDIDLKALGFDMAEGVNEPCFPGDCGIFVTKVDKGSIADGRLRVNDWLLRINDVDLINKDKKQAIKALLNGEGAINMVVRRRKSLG
HTRA1, Q92743, sequence (Q92743 360-477): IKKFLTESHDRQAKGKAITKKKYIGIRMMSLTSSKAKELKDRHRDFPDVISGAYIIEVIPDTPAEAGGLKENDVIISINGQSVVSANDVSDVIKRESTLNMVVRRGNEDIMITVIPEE

PKRSFIESNV [TANC1, Q9C0D5]
pKd [1]: below the threshold | pKd [2]: 4.61 | pKd [3]: 5.72 | pKd [4]: below the threshold | pKd [5]: below the threshold | pKd [6]: 4.96 | pKd [7]: 4.7 | pKd [8]: below the threshold | pKd [9]: 4.28 | pKd [10]: below the threshold | pKd [11]: below the threshold | pKd [12]: below the threshold | pKd [13]: below the threshold | pKd [14]: 3.82 | pKd [15]: 3.53 | pKd [16]: below the threshold | pKd [17]: below the threshold | pKd [18]: 4.77 | pKd [19]: below the threshold | pKd [20]: 5.28 | pKd [21]: below the threshold | pKd [22]: below the threshold | pKd [23]: 4.72 | pKd [24]: 4.38 | pKd [25]: 3.98

DDEDRLVIEI [ZNF831, Q5JPB2]
pKd [1]: 5.7 | pKd [2]: below the threshold | pKd [3]: below the threshold | pKd [4]: below the threshold | pKd [5]: below the threshold | pKd [6]: 3.56 | pKd [7]: below the threshold | pKd [8]: below the threshold | pKd [9]: 3.65 | pKd [10]: below the threshold | pKd [11]: below the threshold | pKd [12]: 3.64 | pKd [13]: below the threshold | pKd [14]: below the threshold | pKd [15]: below the threshold | pKd [16]: below the threshold | pKd [17]: below the threshold | pKd [18]: below the threshold | pKd [19]: below the threshold | pKd [20]: below the threshold | pKd [21]: below the threshold | pKd [22]: below the threshold | pKd [23]: below the threshold | pKd [24]: 3.53 | pKd [25]: below the threshold

QMNQTLPVQV [EPHB3, P54753]
pKd [1]: 4.11 | pKd [2]: below the threshold | pKd [3]: below the threshold | pKd [4]: 3.84 | pKd [5]: below the threshold | pKd [6]: below the threshold | pKd [7]: 3.93 | pKd [8]: below the threshold | pKd [9]: below the threshold | pKd [10]: 3.7 | pKd [11]: below the threshold | pKd [12]: below the threshold | pKd [13]: below the threshold | pKd [14]: below the threshold | pKd [15]: 3.58 | pKd [16]: 4.1 | pKd [17]: below the threshold | pKd [18]: below the threshold | pKd [19]: 3.48 | pKd [20]: below the threshold | pKd [21]: below the threshold | pKd [22]: 3.58 | pKd [23]: below the threshold | pKd [24]: below the threshold | pKd [25]: 3.64

IPLDGETEEL [MYOZ1, Q9NP98]
pKd [1]: 3.99 | pKd [2]: below the threshold | pKd [3]: below the threshold | pKd [4]: below the threshold | pKd [5]: below the threshold | pKd [6]: below the threshold | pKd [7]: 4.1 | pKd [8]: below the threshold | pKd [9]: below the threshold | pKd [10]: below the threshold | pKd [11]: below the threshold | pKd [12]: below the threshold | pKd [13]: below the threshold | pKd [14]: below the threshold | pKd [15]: below the threshold | pKd [16]: below the threshold | pKd [17]: below the threshold | pKd [18]: below the threshold | pKd [19]: below the threshold | pKd [20]: below the threshold | pKd [21]: below the threshold | pKd [22]: below the threshold | pKd [23]: below the threshold | pKd [24]: below the threshold | pKd [25]: below the threshold
